A word on the Km: it is the concentration of substrate that gives half-maximal velocity.

The source of these data is article PMC7839234.

What all share (format): cell-based, Homo sapiens
Holding throughout (details): sodium (lithium also drives uptake)

For one data set, the system named is CN(CC(=O)O)C(=N)N. Put plainly: radiolabelled uptake kinetics in transfected HEK293 Flp-In cells.
In data set [1] the test system is C[N+](C)(C)[C@@H](Cc1c[nH]c(=S)[nH]1)C(=O)[O-]. The description is as above.
Data set [2] deals with NCCC(=O)N[C@@H](Cc1cnc[nH]1)C(=O)O. The data set is described as above.
For data set [3], the system named is C[N+](C)(C)C[C@H](O)CC(=O)[O-]. Nature of the data set: radiolabelled uptake kinetics.

As to SLC22A15 (Homo sapiens), the Michaelis constant (Km) with CN(CC(=O)O)C(=N)N was 291 ± 124 µM; in data set [1] it was 354 ± 95 µM; in data set [2], 510 ± 175 µM; in data set [3], 99 ± 94 µM.
